Data taken from patent CN113150138A.

Biological target: 重组KPC-2蛋白 (recombinant KPC-2 protein, Klebsiella pneumoniae carbapenemase KPC-2) (Klebsiella pneumoniae (肺炎克雷伯菌)) (UniProt Q848S6)
Experiment: indirect ELISA, KPC-2 coated at 100 ng/well, antibody diluted 1:10000 to 1:2560000

Chain of UniProt Q848S6 (Q848S6 25-293): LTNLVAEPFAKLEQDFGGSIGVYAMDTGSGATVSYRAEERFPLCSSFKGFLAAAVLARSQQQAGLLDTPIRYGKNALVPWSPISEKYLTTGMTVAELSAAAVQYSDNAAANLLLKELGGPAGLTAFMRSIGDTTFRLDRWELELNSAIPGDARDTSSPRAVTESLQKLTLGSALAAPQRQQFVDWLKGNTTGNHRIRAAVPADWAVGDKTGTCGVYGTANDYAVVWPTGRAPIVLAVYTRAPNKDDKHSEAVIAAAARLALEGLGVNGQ

B1: KPC-2单克隆抗体 1D7 (antibody, V domains shown)
VH: EVQLQQSGPELVKPGASMKISCKASGYSFTGYTMNWVKQSHGKNLEWIGLINPYNGVTTYNQRFKDKATLTVDKSSITAYMELLSLTSEDSAVYYCARRGLLGLYAMDYWGQGTSVTVSS
VL: DVQITQSPSYLAASPGETITINCRASESIFKFLAWYQEKPGKTNRLLIYSGSTLQSGIPSRFSGSGSGTDFTLTISSLEPEDFAMYYCQQHNEYPLTFGAGTKLELK
Work on B1 yielded a 效价 (ELISA titer, highest positive dilution) (dilution factor) of over 2e+06.

B2: KPC-2单克隆抗体 4B2 (antibody, V domains shown)
VH: QVQLQQPGAELVKPGASVKMSCKASGYTFTSYNMHWVKQTPGQGLEWIGGLYPGNGDTSYNQKFKGRATLTADKSSSTAYMKLSSLTSEDSAVYFCARVGYGHYYFDYWGQGTTLTVSS
VL: DIKMTQSPSSMYASLGERVTIICKASQDINNYLSWFQQKPGKSPKTLIYRANRLAEGVPSRFSGIGSGQDYSLTISSLEYEDMGIYYCLQYDEFPLTFGAGTKLELK
Binder B2 has a 效价 (ELISA titer, highest positive dilution) (dilution factor) of over 2e+06.
